Consider nine molecules from article PMC3145977, “Thermostabilisation of an Agonist-Bound Conformation of the Human Adenosine A2A Receptor” (Journal of Molecular Biology, 2011).

Residue numbers refer to the chain shown, from its start. Numbers in names are those of the source. Where “and” joins values, the source holds several entries; their conditions need not be identical. Equal entries are not always repeated. Where two headings read alike, the source gives them in different places. Marks after values point to notes of the source that are not given here.

For data set [1], the target named is T1, [^3H]ZM241385-bound A2AR (Homo sapiens, UniProt P29274).
T1 construct: The library of Ala/Leu scan mutants in the receptor A2aR-(2–316) was expressed from plasmid pRG/III-hs-MBP in E. coli strain DH5α; made in house; host or cells: Escherichia coli DH5α
Nature of the data set: Thermostability assay of detergent-solubilised receptor with [3H]ZM241385 bound. It counts as physicochemical. As to conditions: identical conditions; DDM. How it is done: (§1) An aliquot of E. coli cells (14 mL) was thawed on ice and resupended in 500 μL of buffer A [50 mM Tris–HCl (pH 7.4), 0.4 M NaCl, 250 μg/mL lysozyme (Sigma) and 1 mg/mL DNase I (Sigma), supplemented with complete ethylenediaminetetraacetic acid (EDTA)-free Protease inhibitor cocktail (Roche)] and incubated for 1 h at 4 °C. Samples were then sonicated for 1 min at 4 °C using a cup-horn sonicator. The receptors were solubilised by adding 1% DDM and incubated for 1 h at 4 °C. Insoluble material was removed by centrifugation (5 min, 13,000g, 4 °C). The solubilised receptors were partially purified with Ni-NTA agarose (Qiagen). Agarose beads (300 μL) pre-equilibrated in buffer A were added to 700 μL of solubilised receptor. […].
(§2) The sample was incubated for 45 min at 4 °C, then 30 min at the specified temperature and then 30 min at 4 °C. Receptor-bound and free radioligands were separated as previously described on mini gel-filtration columns.[26] Receptor-bound ligands were transferred to a 96-well plate (PerkinElmer) and mixed with 200 μL of Optiphase supermix (PerkinElmer). The bound ^3H-labeled ligand was determined using a 1450 Microbeta Trilux counter (1 min per sample).

In data set [2] the test system is [^3H]ZM241385-bound A2AR. The description is as above. It counts as physicochemical, human. As to the method:
as §1, §2

In data set [3] the test system is [^3H]NECA-bound A2AR. The data set is described as follows: Thermostability assay of detergent-solubilised receptor with [3H]NECA bound (ligand plus format). The format is physicochemical, human. As to conditions: for Improvement in stability compared to WT based on t1/2 (decrease in rate of unfolding): from Fig. 2c. How it is done: as §1, with “[…]. After solubilisation in DDM, A2AR was bound to Ni^2+-NTA resin, washed to reduce the DDM concentration and then eluted (see Methods). […]. An” for “An”
as §2
(§3) For all the thermostabilisation studies carried out in our laboratory, the apparent Tm is the temperature for which 50% of the solubilised receptor remains folded after 30 min of incubation. The rate constant of the protein denaturation is a function of the temperature, and consequently, thermal denaturation of a protein can be compared to a chemical reaction for which the rate of the reaction is dependant on the temperature. Arrhenius established that any chemical reaction is temperature dependant. […]. The reference measurement representing the total binding activity of the sample A0 was considered to be measured at 4 °C. From the graphical representation t = Log10(t1/2) (Fig. 2c), we could extract a half-life for each construct at any temperature to define the improvement in stability of the various mutants compared to WT A2AR.

Data set [4] addresses T2, [^3H]NECA-bound A2AR (Homo sapiens, UniProt P29274).
T2 construct: The library of Ala/Leu scan mutants in the receptor A2aR-(2–316) was expressed from plasmid pRG/III-hs-MBP in E. coli strain DH5α; made in house; host or cells: Escherichia coli DH5α
Also on record: method as in PMID 18664584. As to conditions: solubilised in DM; cited from earlier work.

In data set [5] the target is A2AR-GL26 (L48A-Q89A-T65A-A54L) (Homo sapiens, UniProt P29274, A54L/L48A/Q89A/T65A).
Data set [6] deals with T3, [^3H]NECA-bound A2AR (Homo sapiens, UniProt P29274, L48A/Q89A/T65A).
T3 construct: The library of Ala/Leu scan mutants in the receptor A2aR-(2–316) was expressed from plasmid pRG/III-hs-MBP in E. coli strain DH5α; made in house; host or cells: Escherichia coli DH5α
Nature of the data set: Thermostability assay of detergent-solubilised receptor with [3H]NECA bound (ligand plus format). As to conditions: [3H]NECA bound. The format is physicochemical. How it is done:
as §1, with “[…]. After solubilisation in DDM, A2AR was bound to Ni^2+-NTA resin, washed to reduce the DDM concentration and then eluted (see Methods). […]. An” for “An”
as §2, §3

T2 sequence (P29274 2-316): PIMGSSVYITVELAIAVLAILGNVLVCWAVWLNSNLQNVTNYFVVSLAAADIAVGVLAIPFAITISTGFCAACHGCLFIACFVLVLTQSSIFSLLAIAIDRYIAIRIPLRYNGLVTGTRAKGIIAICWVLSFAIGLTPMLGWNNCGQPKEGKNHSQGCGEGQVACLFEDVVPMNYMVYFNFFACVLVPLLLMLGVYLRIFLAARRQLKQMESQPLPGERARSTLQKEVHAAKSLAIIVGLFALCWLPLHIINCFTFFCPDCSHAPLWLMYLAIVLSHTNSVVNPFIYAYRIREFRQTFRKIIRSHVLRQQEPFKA
T1 sequence (P29274 2-316): as above
Sequence of A2AR-GL26 (L48A-Q89A-T65A-A54L) (P29274 whole entry L48A/A54L/T65A/Q89A): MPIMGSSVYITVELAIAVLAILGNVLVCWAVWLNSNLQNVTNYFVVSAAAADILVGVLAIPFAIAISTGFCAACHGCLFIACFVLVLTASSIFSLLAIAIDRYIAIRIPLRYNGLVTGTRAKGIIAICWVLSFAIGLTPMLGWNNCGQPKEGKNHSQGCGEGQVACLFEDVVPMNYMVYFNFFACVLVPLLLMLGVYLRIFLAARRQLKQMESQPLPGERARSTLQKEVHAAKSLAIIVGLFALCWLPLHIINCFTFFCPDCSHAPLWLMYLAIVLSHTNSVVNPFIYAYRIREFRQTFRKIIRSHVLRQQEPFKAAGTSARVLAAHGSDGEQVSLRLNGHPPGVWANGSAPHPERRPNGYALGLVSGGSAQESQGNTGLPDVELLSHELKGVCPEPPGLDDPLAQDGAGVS
T3 sequence (P29274 2-316 L48A/T65A/Q89A): as the sequence (P29274 2-316) above, with L47A, T64A, Q88A counted along it

“WT A2AR: wild-type human adenosine A2A receptor [reference compound]”: the “Stability of [3H]ZM241385-bound versus [3H]NECA-bound A2AR” value in data set [^3H]ZM241385-bound A2AR [1] is 3.5 °C. The “Apparent Tm, Antagonist [^3H]ZM241385” value in data set [^3H]ZM241385-bound A2AR [2] ([3H]ZM241385 bound, DDM, 30 min heating, single thermostability curve) amounted to 32.0 ± 0.1 °C; in data set [^3H]ZM241385-bound A2AR [2] ([3H]ZM241385 bound, DDM, 30 min heating, single thermostability curve, listed as WT) it was 32 °C. Further, in data set [^3H]NECA-bound A2AR [3] ([3H]NECA bound, 0.025% DDM, replicate experiments), the “Apparent Tm in DDM, Final values” is 28.6 ± 0.2 °C and 28.6 ± 0.2 (n = 8) °C. Also, the “Apparent Tm, Agonist [^3H]NECA” value in data set [^3H]NECA-bound A2AR [3] ([3H]NECA bound, DDM, 30 min heating, single thermostability curve, estimated error ± 0.5 °C) is 28.5 °C. For the same molecule, the “Apparent Tm in DM” value in data set [^3H]NECA-bound A2AR [4] was 23 °C.
Consider `Nc1nc2ccc(Cl)cc2c2nc(-c3ccco3)nn12` [CGS15943], for which the “Reduction of binding affinity versus WT A2AR” value in data set [5] turned out to be 320 fold.

B1: GL0: A2AR point mutant L48A, renamed GL0 (protein, UniProt P29274 1-412, looked up, variant L48A)
Adenosine receptor A2a: MPIMGSSVYITVELAIAVLAILGNVLVCWAVWLNSNLQNVTNYFVVSAAAADIAVGVLAIPFAITISTGFCAACHGCLFIACFVLVLTQSSIFSLLAIAIDRYIAIRIPLRYNGLVTGTRAKGIIAICWVLSFAIGLTPMLGWNNCGQPKEGKNHSQGCGEGQVACLFEDVVPMNYMVYFNFFACVLVPLLLMLGVYLRIFLAARRQLKQMESQPLPGERARSTLQKEVHAAKSLAIIVGLFALCWLPLHIINCFTFFCPDCSHAPLWLMYLAIVLSHTNSVVNPFIYAYRIREFRQTFRKIIRSHVLRQQEPFKAAGTSARVLAAHGSDGEQVSLRLNGHPPGVWANGSAPHPERRPNGYALGLVSGGSAQESQGNTGLPDVELLSHELKGVCPEPPGLDDPLAQDGAGVS
With B1, in data set [^3H]ZM241385-bound A2AR [2], the “Apparent Tm, Antagonist [^3H]ZM241385” value is 0 ^b °C. Besides, in data set [^3H]ZM241385-bound A2AR [2] (at 4 °C, 100 nM radioligand), the “Binding of [^3H]ZM241385” value is listed as “did not bind”. The “Apparent Tm in DDM, Single measurement” value in data set [^3H]NECA-bound A2AR [3] was 42.5 °C. Moreover, in data set [^3H]NECA-bound A2AR [3] ([3H]NECA bound, DDM), the “Improvement in stability (apparent Tm) of NECA-bound A2AR versus WT” value worked out at 13.6 °C and the “Improvement in stability compared to WT based on t1/2 (decrease in rate of unfolding)” value stood at 49 fold.

B2: S47A: A2AR point mutant S47A (protein, UniProt P29274 1-412, looked up, variant S47A)
Adenosine receptor A2a: B1 Adenosine receptor A2a with S47A, A48L
With B2, in data set [^3H]ZM241385-bound A2AR [2], the “Apparent Tm, Antagonist [^3H]ZM241385” value was 25.5 °C and the “ΔTm, Antagonist [^3H]ZM241385” value is “− 6.5 °C”.

B3: I238A: A2AR point mutant I238A (protein, UniProt P29274 1-412, looked up, variant I238A)
Adenosine receptor A2a: B1 Adenosine receptor A2a with A48L, I238A
Turning to B3, in data set [^3H]ZM241385-bound A2AR [2], the “Apparent Tm, Antagonist [^3H]ZM241385” value was 36 °C and the “ΔTm, Antagonist [^3H]ZM241385” value is “+ 4 °C”.

B4: A236L: A2AR point mutant A236L (protein, UniProt P29274 1-412, looked up, variant A236L)
Adenosine receptor A2a: B1 Adenosine receptor A2a with A48L, A236L
Take B4: in data set [^3H]ZM241385-bound A2AR [2], the “Apparent Tm, Antagonist [^3H]ZM241385” value was 38 °C and the “ΔTm, Antagonist [^3H]ZM241385” value was “+ 6 °C”.

B5: GL23: A2AR mutant L48A-Q89A-T65A (protein, UniProt P29274 1-412, looked up, variant L48A Q89A T65A)
Adenosine receptor A2a: B1 Adenosine receptor A2a with T65A, Q89A
Take B5: in data set [^3H]NECA-bound A2AR [6], the “Decrease in stability in DM compared with DDM” value is 7.7 °C. For the same molecule, the “Apparent Tm in DDM, Single measurement” value in data set [^3H]NECA-bound A2AR [3] was found to be 50 °C. In addition, the “Improvement in stability compared to WT based on t1/2 (decrease in rate of unfolding)” value in data set [^3H]NECA-bound A2AR [3] ([3H]NECA bound, DDM) is 226 fold; in data set [^3H]NECA-bound A2AR [3] ([3H]NECA bound, DDM, listed as A2AR-GL23), “about 230 fold”.

B6: V282A: A2AR point mutant V282A (protein, UniProt P29274 1-412, looked up, variant V282A)
Adenosine receptor A2a: B1 Adenosine receptor A2a with A48L, V282A
B6: in data set [^3H]ZM241385-bound A2AR [2], the “Apparent Tm, Antagonist [^3H]ZM241385” value amounted to 33 °C and the “ΔTm, Antagonist [^3H]ZM241385” value was “+ 1 °C”.

B7: A50L: A2AR point mutant A50L (protein, UniProt P29274 1-412, looked up, variant A50L)
Adenosine receptor A2a: B1 Adenosine receptor A2a with A48L, A50L
For the molecule B7, in data set [^3H]ZM241385-bound A2AR [2], the “Apparent Tm, Antagonist [^3H]ZM241385” value was determined as 38.5 °C and the “ΔTm, Antagonist [^3H]ZM241385” value is “+ 6.5 °C”.
